B1: recombinant 6xHis-GSAAT (enzyme)
chain: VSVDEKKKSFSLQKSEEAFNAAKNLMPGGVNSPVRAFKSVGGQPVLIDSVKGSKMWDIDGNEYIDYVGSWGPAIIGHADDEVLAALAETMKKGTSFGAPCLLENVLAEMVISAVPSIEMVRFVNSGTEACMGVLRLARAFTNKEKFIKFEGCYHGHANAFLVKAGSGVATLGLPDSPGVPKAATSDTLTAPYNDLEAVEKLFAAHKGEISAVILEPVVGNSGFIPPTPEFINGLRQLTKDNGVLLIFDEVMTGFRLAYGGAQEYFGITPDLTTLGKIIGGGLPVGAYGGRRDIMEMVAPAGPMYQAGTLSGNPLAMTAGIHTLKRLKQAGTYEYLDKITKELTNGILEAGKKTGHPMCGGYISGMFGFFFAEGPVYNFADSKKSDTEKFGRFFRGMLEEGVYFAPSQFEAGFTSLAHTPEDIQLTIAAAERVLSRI
B2: recombinant 6xHis-GBP (natural protein, Arabidopsis thaliana, UniProt Q9LU39 43-317, looked up)
chain: SVSTTLDTPATASTHKPFPAEVSRSIMELSSVGTLSTLTHDGWPLGVGVRFAVDKDGTPVLCLNRSVSPDKRSALHVQLEQCGLRTPQCTIQGSIGRPGDDTVLKRLSATWREKFGEEVKEDSLYVVAVDRVLQMEDFMEDGIWVASSDYKNASPDPLRDIAEDIVNQINANNMEDIFRFCNVYVDLDFVVSETKMIWMDRLGFDLRVWSPRGVYDVRIPFPMEVTDEKGAKSSFNGMSQLAWEVEKSYCPADFNKVKLLKQVVGSSHSHKGGGQ
notes: Labelled with the dye RED-NHS 2nd generation where it was the MST target; unlabelled in the in vitro pull-down; also called 6× His-GBP; source: E. coli Rosetta 2, purified (Ni-NTA)

Assays:
Conditions in all cases: both partners purified
[1] = biological target: T1, labelled 6xHis-GBP incubated with GluTR (GBP/GluTR) (Arabidopsis thaliana, UniProt Q9LU39 43-317; P42804 62-543, RED-NHS 2nd generation dye); assay: MST; 6xHis-GBP labelled with RED-NHS 2nd generation as target, with or without GluTR, ligand in 1:1 dilutions from 5 nM to 110 µM; Monolith NT.115, 30°C, 40% LED power, PBS
T1 construct: as m7; Glutamyl-tRNA reductase (GluTR), Arabidopsis thaliana; The sentence on this titration says only GluTR; 6xHis-GluTR is named for the titration before it; source: recombinant proteins mixed before the titration (6xHis-GBP: E. coli Rosetta 2, purified)

recombinant 6xHis-GluTR = biological target: T2, recombinant 6xHis-GluTR (Arabidopsis thaliana, UniProt P42804 62-543); assay: MST; 6xHis-GSAAT labelled with RED-NHS 2nd generation as target, 6xHis-GluTR titrated; Monolith NT.115, 30°C, PBS
T2 construct: Glutamyl-tRNA reductase (GluTR), Arabidopsis thaliana; Named only in the results on MST; the methods on purification list only GST-GluTR

recombinant 6xHis-GSAAT = biological target: B1; assay: MST; 6xHis-GBP labelled with RED-NHS 2nd generation as target, with or without GluTR, ligand in 1:1 dilutions from 5 nM to 110 µM; Monolith NT.115, 30°C, 40% LED power, PBS

Kd [1] [nM] | Kd (recombinant 6xHis-GluTR) [nM] | Kd (recombinant 6xHis-GSAAT) [nM] | Binder
940 | 3000 |  | B1
 |  | 178 | B2

Reference: publication PMC9614494, “Glutamate 1-semialdehyde aminotransferase is connected to GluTR by GluTR-binding protein and contributes to the rate-limiting step of 5-aminolevulinic acid synthesis” (The Plant Cell, 2022)
